Measured values from paper PMC9507364, “Tuning the Size of Large Dense‐Core Vesicles and Quantal Neurotransmitter Release via Secretogranin II Liquid–Liquid Phase Separation” (Advanced Science, 2022).

B1: Secretogranin III (SgIII) (natural protein)
chain: not shown
notes: source: HEK293S cells, BacMam baculovirus; purified
B2: secretogranin II (SgII), His-mCherry tag removed (natural protein, mouse, UniProt Q03517 31-617, looked up)
chain: QRNQLLQKEPDLRLENVQKFPSPEMIRALEYIEKLRQQAHREESSPDYNPYQGVSVPLQLKENGEESHLAESSRDALSEDEWMRIILEALRQAENEPPSAPKENKPYALNLEKNFPVDTPDDYETQQWPERKLKHMRFPLMYEENSRENPFKRTNEIVEEQYTPQSLATLESVFQELGKLTGPSNQKRERVDEEQKLYTDDEDDVYKTNNIAYEDVVGGEDWSPIEEKIETQTQEEVRDSKENTEKNEQINEEMKRSGQLGLPDEENRRESKDQLSEDASKVITYLRRLVNAVGSGRSQSGPNGDRAARLLQKPLDSQSIYQLIEISRNLQIPPEDLIEMLKAGEKPNGLVEPEQDLELAVDLDDIPEADLDRPDMFQSKMLSKGGYPKAPGRGMVEALPDGLSVEDILNVLGMENVVNQKSPYFPNQYSQDKALMRLPYGPGKSRANQIPKVAWIPDVESRQAPYENLNDQELGEYLARMLVKYPELLNTNQLKRVPSPVSSEDDLQEEEQLEQAIKEHLGPGSSQEMERLAKVSKRIPVGSLKNEDTPNRQYLDEDMLLKVLEYLNQEQAEQGREHLAKRAMENM
notes: signal peptide in the construct; residues 1-617 (total of 617 amino acids; 1-30 is the signal peptide); Non-tagged proteins were made by cutting off His-mCherry with PreScission protease; The SPR methods say only 'Purified SgII', without the state of the tag; also called CgC; SgII_(1–617); source: HEK293S cells, BacMam baculovirus; purified (Ni-NTA, PreScission protease, Superose 6 Increase); not …
B3: mCherry-tagged SgII (SgII-mCherry) (natural protein, mouse, UniProt Q03517 31-617, looked up)
chain: B2 chain
notes: signal peptide in the construct; residues 1-617 (total of 617 amino acids; 1-30 is the signal peptide); also called SgII_(1–617) tagged with mCherry; source: HEK293S cells, BacMam baculovirus; purified (Ni-NTA, Superose 6 Increase); not shown: mCherry, C-terminal, kept

Key:
[1] = target: B2; experiment: SPR; Biacore T200, 25 °C; purified SgII immobilised on a CM5 chip by amine coupling; SgIII injected as analyte, 2 to 1000 nM in twofold dilutions; 25 mM Tris pH 7.5, 150 mM NaCl, 0.05% P20; dissociation constant calculated in affinity mode; conditions: both partners purified
[2] = target: the molecule itself; experiment: SEC; Superose 6 Increase 10/300 GL; 25 mM Tris pH 7.5, 500 mM NaCl; self-association

Row | Binder | Kd [1] [nM] | binding result [2]
1 | B1 | 21.4 | 
2 | B2 |  | binds
3 | B3 |  | binds
